Experimental data from paper PMC3753675.

T1: GST-hHSF2 (human) (UniProt Q03933)
T1 sequence: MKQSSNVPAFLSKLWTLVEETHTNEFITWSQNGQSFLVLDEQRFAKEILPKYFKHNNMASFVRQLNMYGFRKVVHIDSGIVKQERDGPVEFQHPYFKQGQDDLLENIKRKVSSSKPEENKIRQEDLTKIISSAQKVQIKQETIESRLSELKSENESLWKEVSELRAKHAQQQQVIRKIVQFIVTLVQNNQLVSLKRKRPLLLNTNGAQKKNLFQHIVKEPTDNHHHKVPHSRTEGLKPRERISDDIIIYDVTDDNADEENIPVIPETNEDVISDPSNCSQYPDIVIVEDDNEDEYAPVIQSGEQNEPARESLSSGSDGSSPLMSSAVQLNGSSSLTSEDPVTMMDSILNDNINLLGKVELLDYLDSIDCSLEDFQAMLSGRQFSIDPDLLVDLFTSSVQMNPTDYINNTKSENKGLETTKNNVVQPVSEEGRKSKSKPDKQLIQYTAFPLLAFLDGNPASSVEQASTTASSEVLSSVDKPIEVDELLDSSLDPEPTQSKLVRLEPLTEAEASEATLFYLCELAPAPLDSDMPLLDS

T2: GST-hHSF1 (human) (UniProt Q00613)
T2 sequence: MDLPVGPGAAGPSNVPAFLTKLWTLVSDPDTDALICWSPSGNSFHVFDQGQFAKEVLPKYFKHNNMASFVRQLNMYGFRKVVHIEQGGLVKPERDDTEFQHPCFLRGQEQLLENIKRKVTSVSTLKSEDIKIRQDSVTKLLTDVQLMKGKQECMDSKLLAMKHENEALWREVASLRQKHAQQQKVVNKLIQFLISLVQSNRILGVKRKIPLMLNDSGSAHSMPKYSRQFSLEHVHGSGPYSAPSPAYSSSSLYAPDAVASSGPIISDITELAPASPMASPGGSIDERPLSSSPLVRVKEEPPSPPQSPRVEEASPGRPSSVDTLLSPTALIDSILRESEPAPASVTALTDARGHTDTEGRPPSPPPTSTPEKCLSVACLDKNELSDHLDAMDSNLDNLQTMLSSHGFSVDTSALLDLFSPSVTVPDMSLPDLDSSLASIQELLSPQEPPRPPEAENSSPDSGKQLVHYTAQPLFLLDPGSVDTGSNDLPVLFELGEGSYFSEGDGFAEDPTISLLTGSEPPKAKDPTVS

T3: dHSF (Drosophila melanogaster, UniProt P22813 1-691)
T3 sequence: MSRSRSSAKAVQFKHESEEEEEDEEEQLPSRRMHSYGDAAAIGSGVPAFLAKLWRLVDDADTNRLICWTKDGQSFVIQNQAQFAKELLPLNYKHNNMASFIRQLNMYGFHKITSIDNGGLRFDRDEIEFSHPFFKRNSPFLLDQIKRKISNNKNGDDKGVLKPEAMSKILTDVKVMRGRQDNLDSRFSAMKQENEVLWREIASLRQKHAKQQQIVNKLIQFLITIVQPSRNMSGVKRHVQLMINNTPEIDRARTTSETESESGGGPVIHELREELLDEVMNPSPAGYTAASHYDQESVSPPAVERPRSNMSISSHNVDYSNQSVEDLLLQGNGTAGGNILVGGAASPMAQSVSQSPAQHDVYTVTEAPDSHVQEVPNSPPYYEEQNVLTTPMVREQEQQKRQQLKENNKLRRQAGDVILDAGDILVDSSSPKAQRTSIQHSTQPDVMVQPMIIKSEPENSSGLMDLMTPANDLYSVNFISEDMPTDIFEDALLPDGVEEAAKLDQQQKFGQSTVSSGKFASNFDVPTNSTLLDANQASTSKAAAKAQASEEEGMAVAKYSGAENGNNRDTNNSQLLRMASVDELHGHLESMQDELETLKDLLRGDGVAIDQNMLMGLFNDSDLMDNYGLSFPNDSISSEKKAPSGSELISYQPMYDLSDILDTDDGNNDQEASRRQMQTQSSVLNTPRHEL


Legend:
Assay in all cases: EMSA
[1] = target: T1, GST-hHSF2 (human); conditions: binding buffer ([…], room temperature 2 h
[2] = target: T2, GST-hHSF1 (human); conditions: binding buffer ([…], room temperature 2 h
[3] = target: T3, dHSF

Row | Molecule | Kd [1] [nM] | Kd [2] [nM] | Kd [3] [nM]
1 | GGGAAUGGAUCCACAUCUACGAAUUCAAUCAAGUCCCCAGACUCAGCAACACUGGACAGCGAUAUGCAGAUAACCAAGACCAAUUCACUCCAGUUCACUGCAGACUUGACGAAGCUU [hHSF2-R5-2] | < 20 | < 20 | –
2 | GGGAAUGGAUCCACAUCUACGAAUUCCACUCCAUAGUAUCUAGAAGCCCUGCCGAAAACGAGAGCGCUUACGCUUAUAAAUGAUCAACCUACCUCGUUCACUGCAGACUUGACGAAGCUU [hHSF1-R5-1] | < 20 | < 20 | –
3 | hHSF2-R5-2 (structured_RNA) RNA: GGGAAUGGAUCCACAUCUACGAAUUCAAUCAAGUCCCCAGACUCAGCAACACUGGACAGCGAUAUGCAGAUAACCAAGACCAAUUCACUCCAGUUCACUGCAGACUUGACGAAGCUU | – | – | ~70
4 | hHSF1-R5-1 (structured_RNA) RNA: GGGAAUGGAUCCACAUCUACGAAUUCCACUCCAUAGUAUCUAGAAGCCCUGCCGAAAACGAGAGCGCUUACGCUUAUAAAUGAUCAACCUACCUCGUUCACUGCAGACUUGACGAAGCUU | – | – | ~70
